From patent US20030232742A1, “FAP-activated anti-tumor compounds” (priority 2000, published 2003)
*1 amine or outer side, *2 acyl side, *3 side chain or, on linkers, in order; H or OH if unused. Where no end group is shown, it is not given here. [ ]: non-standard residue; d: D form. The star is where a group is joined. morpholino‑(ethyloxycarbonyl) = morpholino-(ethyloxycarbonyl) N-terminal blocking group, O=C(OCCN1CCOCC1)*; NH(4-MeO-2-naphthyl) = COc1cc(N*)cc2ccccc12; Glutaryl = O=C(CCCC(=O)[*:2])[*:1]; Suc = O=C(CCC(=O)[*:2])[*:1]; 4Amb = NCc1ccc(C(=O)O)cc1; NMeA = CN[C@@H](C)C(=O)O

How the values were obtained:
FAP = molecular target: T1, FAP (Homo sapiens, UniProt Q12884); assay: Assay for cleavage of MNA substrates by FAP; type: biochemical; conditions: 1 ng FAP enzyme in 293 cell extract, 20 μl 2.5 mM substrate (a few diluted further), room temperature 1 hour, control 293 extract subtracted
T1 construct: Cell extract from 293 cells stably transfected with FAP prepared as described; expressed in transfected cells; detergent extract used
T1 sequence (Q12884 1-760): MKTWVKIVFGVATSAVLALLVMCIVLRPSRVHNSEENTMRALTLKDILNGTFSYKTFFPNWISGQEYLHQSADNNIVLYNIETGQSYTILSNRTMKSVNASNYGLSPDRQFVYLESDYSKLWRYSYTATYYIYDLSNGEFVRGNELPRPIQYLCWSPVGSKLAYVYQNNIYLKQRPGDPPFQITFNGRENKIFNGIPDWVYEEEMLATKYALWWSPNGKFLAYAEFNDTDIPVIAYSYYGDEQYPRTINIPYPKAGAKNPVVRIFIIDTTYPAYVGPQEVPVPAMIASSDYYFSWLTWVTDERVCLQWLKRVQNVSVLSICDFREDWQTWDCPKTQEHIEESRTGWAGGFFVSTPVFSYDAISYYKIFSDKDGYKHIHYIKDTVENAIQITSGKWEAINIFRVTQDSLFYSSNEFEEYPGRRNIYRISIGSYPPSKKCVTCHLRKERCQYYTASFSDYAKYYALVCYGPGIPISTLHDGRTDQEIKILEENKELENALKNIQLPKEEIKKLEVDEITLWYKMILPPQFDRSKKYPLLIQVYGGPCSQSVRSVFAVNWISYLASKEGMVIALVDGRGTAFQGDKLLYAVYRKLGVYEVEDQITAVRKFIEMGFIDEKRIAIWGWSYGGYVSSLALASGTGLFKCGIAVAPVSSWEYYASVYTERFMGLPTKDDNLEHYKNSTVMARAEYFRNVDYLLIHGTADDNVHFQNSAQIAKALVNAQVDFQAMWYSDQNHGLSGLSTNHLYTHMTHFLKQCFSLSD
Excerpt: To identify preferred FAPα peptide substrates, blocked oligopeptides composed of natural amino carboxylic acids were synthesized and coupled to Proline-4-methoxy-β-napthylamine (Pro-MNA) using methods known to the art (E. Wünsch, Synthese von Peptiden, in Methoden der organischen Chemie, Houben-Weyl (Eds. E. Müller, 0. Bayer), Vol. XV, Part 1 and 2, Georg Thieme Verlag, Stuttgart, 1974). The turnover and cleavage rate have been determined with the aid pf the following assay:
Assay for Cleavage of MNA Substrates by FAP:
Cell extract from 293 cells stably transfected with FAP prepared as described (see Park, et al., Fibroblast Activation Protein, a Dual Specificity Serine Protease expressed in human tumor stromal fibroblasts. (1999) J. Biol. Chem. 36505-12.). A similar extract was also prepared from parental 293 control cells without FAP. The FAP concentration in the FAP-transfected cell extract was estimated by immunoassay and 1 ng enzyme (diluted in buffer A) was used per assay. FAP-negative 293 control cell extract was used at the same dilution (also in buffer A) as a negative control. Substrate was initially dissolved in dimethylformamide at a concentration of 200 mM and diluted in buffer A to a final concentration of 2.5 mM. A few substrates were not soluble at this concentration and had to be diluted further.
10 μl 10% DMSO in buffer A
70 μl diluted FAP cell extract containing 1 ng FAP enzyme (OR control 293 cell extract without FAP)
Mix, incubate at room temperature for 1 hour, and measure fluorescence in Fluorostar fluorimeter at the following wavelengths:
MNA conjugates: Excitation: 355 nm, Emission: 405 nm.
The fluorescence measured in the samples treated with control 293 control cell extracts without FAP is subtracted from the values measured in the samples treated with 1 ng FAP enzyme.

FAPα dimers = molecular target: T2, FAPα dimers (Homo sapiens, UniProt Q12884); conditions: membrane overlay assay, WO 97/34927; cited from earlier work
T2 sequence (Q12884 1-760): T1 sequence (Q12884 1-760)

Substance	% Turnover (FAP) [%]	Cleavage (FAP) [µM]	cleavage of dipeptide coumarin substrate (FAPα dimers)
2-Morpholino-ethyl-Pro-Ala-Gly-Pro-MNA ({2‑morpholino‑ethyl}-PAGP-{NH(4-MeO-2-naphthyl)})	0.26	0.64	
Glutaryl-Pro-Ala-Gly-Pro-MNA (Glutaryl-PAGP-{NH(4-MeO-2-naphthyl)}; SMILES COc1cc(NC(=O)[C@@H]2CCCN2C(=O)CNC(=O)[C@H](C)NC(=O)[C@@H]2CCCN2C(=O)CCCC(=O)O)cc2ccccc12)	0.3	1.48	
Pyrid-3-ylmethyloxycarbonyl-MeAla-Ala-Gly-Pro-MNA ({pyrid‑3‑ylmethyloxycarbonyl}-[NMeA]AGP-{NH(4-MeO-2-naphthyl)}) [MeAla represents a N-methylalanin moiety]	1.27	6.31	
Pyrid-3-ylmethyloxycarbonyl-2-Aze-Ala-Gly-Pro-MNA	3.42	17.1	
Prazin-2-ylcarbonyl-Pro-Ala-Gly-Pro-MNA ({pyrazin‑2‑ylcarbonyl}-PAGP-{NH(4-MeO-2-naphthyl)})	0.56	0.7	
Ala-Pro-7-amino-4-trifluoromethyl coumarin			able to cleave
Pyridin-3-ylmethoxycarbonyl-Pro-Ala-Gly-Pro-MNA ({pyridin‑3‑ylmethoxycarbonyl}-PAGP-{NH(4-MeO-2-naphthyl)})	1.77	8.86	
Succinyl-Pro-Ala-Gly-Pro-MNA (Suc-PAGP-{NH(4-MeO-2-naphthyl)}; SMILES COc1cc(NC(=O)[C@@H]2CCCN2C(=O)CNC(=O)[C@H](C)NC(=O)[C@@H]2CCCN2C(=O)CCC(=O)O)cc2ccccc12)	0.29	1.44	
Pyrid-3-ylmethyloxycarbonyl-Pip-Ala-Gly-Pro-MNA	0.56	2.78	
4-Hydroxyphenylacetyl-Pro-Ala-Gly-Pro-MNA ({4‑hydroxyphenylacetyl}-PAGP-{NH(4-MeO-2-naphthyl)})	0.69	1.72	
4-Fluorphenylacetyl-Gly-Pro-MNA	0.42	2.08	
3,5-Difluorphenylacetyl-Gly-Pro-MNA	2.26	2.26	
4-Aminomethylbenzoyl-Pro-Ala-Gly-Pro-MNA ([4Amb]PAGP-{NH(4-MeO-2-naphthyl)})	0.24	1.21	
3-Fluorphenylacetyl-Gly-Pro-MNA	0.35	1.77	
Pyrid-4-ylmethyloxycarbonyl-2-Aze-Ala-Gly-Pro-MNA	1.61	8.07	
4-Pyridylmethyloxycarbonyl-Pro-Ala-Gly-Pro-MNA ({4‑pyridylmethyloxycarbonyl}-PAGP-{NH(4-MeO-2-naphthyl)})	1.28	6.38	
1-Methylpyrrol-2-ylcarbonyl Pro-Ala-Gly-Pro-MNA ({1‑methylpyrrol‑2‑ylcarbonyl}-PAGP-{NH(4-MeO-2-naphthyl)})	0.13	0.33	
Lys-Pro-7-amino-4-trifluoromethyl coumarin			able to cleave
Morpholino-carbonyl-Pro-Ala-Gly-Pro-MNA ({morpholino‑carbonyl}-PAGP-{NH(4-MeO-2-naphthyl)})	0.6	2.99	
Gly-Pro-7-amino-4-trifluoromethyl coumarin			able to cleave
3 -Pyridylmethyloxycarbonyl-Gly-Pro-MNA	0.72	3.58	

More lines, main results first:

% Turnover (FAP) [%]	Cleavage (FAP) [µM]	Substance	cleavage of dipeptide coumarin substrate (FAPα dimers)
0.26	1.28	4-Aminomethylphenylacetyl-Pro-Ala-Gly-Pro-MNA ({4‑aminomethylphenylacetyl}-PAGP-{NH(4-MeO-2-naphthyl)})	
0.37	1.85	4-Dimethylaminobenzoyl-Pro-Ala-Gly-Pro-MNA ({4‑dimethylaminobenzoyl}-PAGP-{NH(4-MeO-2-naphthyl)})	
0.58	2.88	3-Carboxyphenylsulfonyl-Pro-Ala-Gly-Pro-MNA ({3‑carboxyphenylsulfonyl}-PAGP-{NH(4-MeO-2-naphthyl)})	
0.39	1.94	4-(2-Aminothiazol-5-yl)-acetyl-Pro-Ala-Gly-Pro-MNA ({(2-aminothiazol-5-yl)‑acetyl}-PAGP-{NH(4-MeO-2-naphthyl)})	
0.26	1.28	2-Fluorphenylacetyl-Gly-Pro-MNA	
0.65	3.25	Morpholino-(ethyloxycarbonyl)-Pro-Ala-Gly-Pro-MNA ({morpholino‑(ethyloxycarbonyl)}-PAGP-{NH(4-MeO-2-naphthyl)}; SMILES COc1cc(NC(=O)[C@@H]2CCCN2C(=O)CNC(=O)[C@H](C)NC(=O)[C@@H]2CCCN2C(=O)OCCN2CCOCC2)cc2ccccc12)	
1.82	9.12	3-Pyridylacetyl-Gly-Pro-MNA	
0.43	2.16	Pyrid-4-ylmethyloxycarbonyl-Pip-Ala-Gly-Pro-MNA	
0.21	1.05	Malonyl-Pro-Ala-Gly-Pro-MNA (malonyl-PAGP-{NH(4-MeO-2-naphthyl)})	
1.18	5.92	4-Pyridylmethyloxycarbonyl-Gly-Pro-MNA	
0.6	3	4-Amino-Phenylacetyl-Gly-Pro-MNA	
